Biological target: the molecule itself
Assay: SEC

B1: Plasmodium berghei phosphoglycolate phosphatase (PbPGP) (enzyme, P. berghei, UniProt A0A509AU59 1-322, looked up)
chain: MSLIVSEASQNNYFKDSENSYNSFMKEWKIEKRVNVKDLYQNFEVFFFDCDGVLWRGDTVINGAIEVINKLISDNKKVYFITNNSTKSRDTLLGKFHKLGFTCVKKEHIICTSYAIAKYFHSKEEYKSRKKKIYVIGEKGICDELDALNLVWLGSYKDNDKKVIIQDEGEIQIDNNIGAVVVAIDFNINYYKIQYAQLCINGLDAEFIVSNKDPLANFTSNQQWAGTGSIVASIEQVSFKKPKVLGKPNLFMIESVLKSLNIDLSKVVMIGDRLDTDIFFAQNCKIKSILVSTGVTDANVFLNHNNLNIKPDYFMKSILEFL
  stoichiometry N: 2

Source: article doi:10.1101/495473 (bioRxiv, 2018)
